The text below walks through data of patent US20210355208.

This data set addresses anti-EGFR activatable antibodies comprising substrates 2001, 2006-2010 and 2012.

B1: human matriptase (protein)
chain: VVGGTDADEGEWPWQVSLHALGQGHICGASLISPNWLVSAAHCYIDDRGFRYSDPTQWTAFLGLHDQSQRSAPGVQERRLKRIISHPFFNDFTFDYDIALLELEKPAEYSSMVRPICLPDASHVFPAGKAIWVTGWGHTQYGGTGALILQKGEIRVINQTTCENLLPQQITPRMMCVGFLSGGVDSCQGDSGGPLSSVEADGRIFQAGVVSWGDGCAQRNKPGVYTRLPLFRDWIKENTGV
Consider B1, for which the kcat/Km entry is “a range of kcat/Km values ranging from 6E+02 to 2E+04”.
